Data published in patent US20020114780A1, “Methods of increasing distribution of therapeutic agents” (priority 2000, published 2002).

Columns and labels:
[1] = format: in vivo; conditions: for increase in Vd when co-infused with heparin: 5 μg protein in 5 μl, 0.2 μl/min, with heparin (18 μg) vs infused alone; for Vd/Vi ratio: low volume (5 μl) infusion, apparently with heparin co-infusion (FIG. 2b)
Experimental: (§1) The animals were anesthetized with ketamine (10 mg/kg) and xylazine (3 mg/Kg) via intraperitoneal injection and placed in a Kopf small animal stereotactic frame. A sagittal incision was made through the skin and a burr hole was placed into the skull with a twist drill. The cannula coordinates were: 0.5 mm anterior to bregma, 2.8 mm to the right of bregma, and 5 mm below the dura.
(§2) The infusion apparatus consisted of a hydraulic drive serially connected to a syringe pump. This depressed the plunger of one of two 250 μl Hamilton syringes connected by cannulas made from polyetheretherketone (PEEK) tubing (inner diameter 250 μm) and filled with distilled water. One of the 250 μl Hamilton syringes was secured to the stereotactic frame and was contiguous with an infusate-filled 10 or 50 μl Hamilton syringe. Since the system was non-compliant (zero dead space), the compression of the syringe pump of the infusion apparatus led to the measured release of infusate from the 10 or 50 μl Hamilton syringe in a uniform fashion. All infusions were performed with a 32 g cannula at 0.2 μl/min (6).
The vehicle was 4% mannitol in 10 mM HEPES. […]
(§3) The brains were cut into 40 μm serial coronal sections on a cryostat. Frozen sections were collected in a series in antifreeze solutions and stored at −70° C. Every 12th section was stained for immunohistochemistry.
Sections were washed in phosphate buffered saline (PBS) and incubated in 3% H2O2 for 20 minutes to block endogenous peroxidase activity. […] The sections were then incubated for 1 hour in biotinylated anti-mouse IgG secondary antibody (Vector Labs, 1:300). Antibody binding was visualized with streptavidin horseradish peroxidase (Vector Labs, 1:300) and VIP chromogen (Vector Labs). Sections were then coverslipped and examined under light microscopy. Vd was measured using NIH image analysis software.
The volume of distribution of BSA and the GDNF family of trophic factors was analyzed using a Macintosh-based image analysis system. Images of stained tissue slices were captured by a CCD camera using Adobe Photoshop software. Using NIH Image Analysis software, the area of distribution of infused protein in each tissue section was automatically determined using a threshold of 50% of the maximal stained optical density. The sum of the areas of infusion was used to determine the Vd in each striatum.

[2] = Histological examination of infused brains for hemorrhage and tissue damage; format: in vivo, rat; conditions: heparin 0.5 units/μl, low volume studies
Experimental: Studies were conducted to establish whether CED could be used to distribute trophic factors within the GDNF family over volumes that might be relevant to larger primate brains. High volume infusions (20 μl) of NTN with heparin were able to cover significant volumes of the rat brain (FIG. 3). […] Maximum Vd attained following co-infusion with heparin was 37.3 mm^3, compared to a maximum Vd of 11.0 mm^3 in control animals (FIG. 3). At this infusion volume, in 4 out of 6 animals in which NTN was co-infused with heparin, the striatum was completely stained, as opposed to none of the subjects infused with NTN alone. There was no evidence of hemorrhage (H&E stain) in any of the specimens following the high volume infusions.
All brains had well demarcated areas of antibody staining following immunohistochemistry. In all brains, there was no evidence of tissue damage, with the exception of the needle track and some non-specific drill-induced cortical lesions. There was no evidence of hemorrhage in any animal at 0 or 4 days after infusion.
This emphasizes the importance of receptor binding in drug distribution as well.

dopamine utilization = assay: Dopamine utilization: striatal DOPAC/DA ratio by HPLC 4 days after intrastriatal infusion; format: in vivo, rat
Experimental: In the study analyzing dopamine metabolism following trophic factor administration, the animals were infused with 5 μg of NTN in 5 μl of vehicle with and without heparin (2.5 units) and sacrificed after 4 days. The vehicle was 4% mannitol in 10 mM HEPES. After completing infusion, the cannula was withdrawn at 1 mm/minute. Following the procedure, the animals used for immunohistochemical analysis were intracardially perfused with 4% paraformaldehyde. Brains were harvested and immersed overnight in 4% paraformaldehyde. The brains were cryoprotected through immersion in graded sucrose solution (20-30%) and frozen at […]. Animals to be used in HPLC studies were euthenized and the brains were harvested and fresh frozen at −70°.
Animals were sacrificed 4 days after intrastriatal infusion of 5 μl vehicle with 18 μg of heparin, 5 μg of NTN in 5 μl of vehicle or 5 μg of NTN in 5 μl of vehicle with 18 μg of heparin. After decapitation, the brains were rapidly removed and chilled in ice for 4 minutes. They were sliced 1 mm anterior and 2 mm posterior to the injection site using a chilled plastic brain mold. For biochemical studies, frozen punches from the striatum were taken from the injected and uninjected sides for comparison. […] Dopamine (DA), serotonin (5-HT) and their metabolites were measured by HPLC using Ultrasphere C-18 ion pair column, 5μ, 4.6 mm×25 cm (Beckman 235329): a Waters 717 plus autosampler, Waters 510 pump at 0.8 ml/min, and an amperometric electrochemical detector (EiCom CB-100) set at 0.78 V. The mobile phase contained 2-1 deionized water, 2.8 g L-heptanesulfonic acid sodium salt, 0.17 g EDTA, 20 ml triethylamine and 50 ml acetonitrile, pH was adjusted to 2.6 with 13 ml of 85% phosphoric acid. The results were recorded and analyzed with Waters Millenium 2010 Chromatography Manager software. Protein concentration in the tissue pellet was determined using the BCA Protein Assay Kit (Pierce #23225). The results are expressed as nM/hr/mg of protein.

[3] = CED high volume (20 μl) NTN intrastriatal infusion, volume of distribution by immunohistochemistry; format: in vivo, rat
Experimental: as §1, §2
The vehicle was 4% mannitol in 10 mM HEPES. In the high volume experiment, 50 μg of NTN in 20 μl of vehicle with (n=6) and without (n=6) heparin (71 μg) was delivered into the striatum.
as §3
Sections were washed in phosphate buffered saline (PBS) and incubated in 3% H2O2 for 20 minutes to block endogenous peroxidase activity. […] Vd was measured using NIH image analysis software.
The volume of distribution of BSA and the GDNF family of trophic factors was analyzed using a Macintosh-based image analysis system. […] Using NIH Image Analysis software, the area of distribution of infused protein in each tissue section was automatically determined using a threshold of 50% of the maximal stained optical density. […]

**Q.** With Artemin as the molecule, how does the “increase in Vd when co-infused with heparin” value (shortened to “increase in Vd when co-infused”) [1] read?
**A.** greater than 10 fold

**Q.** Which “gross or microscopic hemorrhage” value [2] does the source give for heparin [reference compound] here?
**A.** no evidence of gross or microscopic hemorrhage

**Q.** And the “DOPAC/DA levels compared to the uninjected (left) striatum” value (dopamine utilization; 5 μl vehicle with 18 μg heparin, 4 days)?
**A.** no change

B1: Neurturin (protein, UniProt Q99748 96-197, looked up)
Neurturin: ARLGARPCGLRELEVRVSELGLGYASDETVLFRYCAGACEAAARVYDLGLRRLRQRRRLRRERVRAQPCCRPTAYEDEVSFLDAHSRYHTVHELSARECACV
notes: trophic factor of the GDNF ligand family
**Q.** With B1 as the molecule, how does the “increase in Vd when co-infused” value [1] read?
**A.** 7 fold

**Q.** What about the Vd/Vi ratio [1] of the same molecule?
**A.** 4.6

**Q.** What about the DOPAC/DA ratio (dopamine utilization; 5 μg NTN in 5 μl, with or without heparin 18 μg, 4 days after infusion, mean +/- S.E.) of the same molecule?
**A.** 146+/−14.2 percentage of the uninjected h

**Q.** What about the “DOPAC/DA ratio compared to the vehicle+heparin group” value (dopamine utilization; 4 days after right striatal infusion, Fisher test) of the same molecule?
**A.** significantly increased

**Q.** What about the “animals in which the striatum was completely stained” value ([3]; 20 μl infusion, n=6 per group) of the same molecule?
**A.** none

**Q.** And the “Maximum Vd” value ([3]; rat, in vivo)?
**A.** 11.0 mm^3

**Q.** And the Vd ([3]; rat, in vivo)?
**A.** 7.7+/−1.1 mm^3

B2: GDNF (protein, UniProt P39905 78-211, looked up)
Glial cell line-derived …: SPDKQMAVLPRRERNRQAAAANPENSRGKGRRGQRGKNRGCVLTAIHLNVTDLGLGYETKEELIFRYCSGSCDAAETTYDKILKNLSRNRRLVSDKVGQACCRPIAFDDDLSFLDDNLVYHILRKHSAKRCGCI
notes: glial cell line-derived neurotrophic factor, trophic factor provided by Genentech
**Q.** Which “increase in Vd when co-infused” value [1] does the source give for B2 here?
**A.** 5 fold

**Q.** What about the Vd/Vi ratio [1] of the same molecule?
**A.** 5.0

**Q.** And the “effect of heparin co-infusion on Vd” value ([1]; rat, in vivo)?
**A.** significantly increased
